Experimental data published in patent publication US20220002412A1 (SINOCELLTECH, published 2022).

Tests used:
[1] = molecular target: T1, recombinant monkey PD-1 protein (monkey, UniProt B0LAJ3 25-170, Biotinylated in the Octet assay; the site of biotinylation is not stated.); experiment: Octet (BLI), biotinylated monkey PD-1
T1 construct: Bought protein; also called biotinylated monkey PD-1 protein

[2] = molecular target: T1, recombinant monkey PD-1 protein; experiment: indirect ELISA, coated antigen titrated, antibody at 2 µg/mL
[3] = molecular target: T2, recombinant human PD-1 protein (Sino Biological, Inc, Cat. 10377-H08H) (human, UniProt Q15116 25-167); experiment: monoclonal phage ELISA on recombinant human PD-1 protein
[4] = molecular target: T2, recombinant human PD-1 protein (Sino …); experiment: competition ELISA: coated recombinant human PD-1, blocked ligand PD-L1-Fc-biotin, antibody at three concentrations
[5] = molecular target: T3, recombinant CD16a-AVI-His (V158)+BirA protein (UniProt P08637 17-208, +BirA (AVI tag, detected with streptavidin/HRP)); experiment: ELISA: antibody titrated on coated recombinant human PD-1, then recombinant CD16a-AVI-His (V158)+BirA with streptavidin/HRP
T3 construct: Bought from Sino Biological; It is the V158 allotype as printed; also called recombinant CD16a (V158) protein; recombinant CD16a protein

[6] = molecular target: T4, recombinant mouse PD-1 protein (mouse, UniProt Q02242 25-167, limits assumed, biotinylated in the Octet assay); experiment: Octet biolayer interferometry on biotinylated mouse PD-1 protein
T4 construct: Bought protein; also called murine PD-1; biotinylated mouse PD-1 protein
T4 sequence (looked up): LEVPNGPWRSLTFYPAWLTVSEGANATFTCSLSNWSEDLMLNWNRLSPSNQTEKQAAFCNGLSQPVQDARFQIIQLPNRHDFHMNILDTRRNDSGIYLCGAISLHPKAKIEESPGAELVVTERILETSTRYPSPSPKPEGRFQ

[7] = molecular target: T5, biotinylated FCGRT-His+B2M protein (human, UniProt P55899 24-297; P61769 21-119, biotinylated); experiment: ELISA at pH 6.0, biotinylated FCGRT-His+B2M captured on avidin, antibody at 270 µg/mL
T5 construct: Bought from Sino Biological; also called recombinant human FcRn protein; human FcRn protein

[8] = molecular target: T1, recombinant monkey PD-1 protein; experiment: indirect ELISA, coated antigen titrated (antigenic EC50), antibody at 2 µg/mL

T1 sequence (B0LAJ3 entry or part of it limits assumed): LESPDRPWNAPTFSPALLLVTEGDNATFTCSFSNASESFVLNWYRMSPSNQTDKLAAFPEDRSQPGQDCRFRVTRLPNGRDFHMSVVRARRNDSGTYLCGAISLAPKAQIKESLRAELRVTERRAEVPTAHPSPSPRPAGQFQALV
T2 sequence (Q15116 25-167 limits assumed): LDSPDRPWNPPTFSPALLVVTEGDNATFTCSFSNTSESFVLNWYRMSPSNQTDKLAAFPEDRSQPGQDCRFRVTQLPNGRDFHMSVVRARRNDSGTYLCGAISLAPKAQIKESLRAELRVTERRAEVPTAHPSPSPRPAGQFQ
T5 sequence (P55899 24-297 limits assumed, chain 1 of 2): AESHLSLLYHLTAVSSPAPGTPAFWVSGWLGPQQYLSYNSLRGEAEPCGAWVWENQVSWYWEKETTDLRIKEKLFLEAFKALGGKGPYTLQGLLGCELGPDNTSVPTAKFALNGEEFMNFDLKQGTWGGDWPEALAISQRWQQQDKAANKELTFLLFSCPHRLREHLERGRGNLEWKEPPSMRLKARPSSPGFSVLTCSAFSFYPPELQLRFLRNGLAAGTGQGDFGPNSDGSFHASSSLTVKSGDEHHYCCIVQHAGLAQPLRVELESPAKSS
T5 sequence (P61769 21-119 limits assumed, chain 2 of 2): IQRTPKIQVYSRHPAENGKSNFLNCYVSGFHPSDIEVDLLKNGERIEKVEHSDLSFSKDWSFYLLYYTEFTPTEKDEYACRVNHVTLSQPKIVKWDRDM
T3 sequence (P08637 17-208 F176V limits assumed): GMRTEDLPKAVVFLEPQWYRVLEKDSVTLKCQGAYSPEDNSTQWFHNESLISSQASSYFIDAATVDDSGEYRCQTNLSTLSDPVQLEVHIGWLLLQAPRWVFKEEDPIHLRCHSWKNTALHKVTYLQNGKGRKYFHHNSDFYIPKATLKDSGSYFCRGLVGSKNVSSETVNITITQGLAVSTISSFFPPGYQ

B1: Nivolumab (antibody, V domains shown)
VH: QVQLVESGGGVVQPGRSLRLDCKASGITFSNSGMHWVRQAPGKGLEWVAVIWYDGSKRYYADSVKGRFTISRDNSKNTLFLQMNSLRAEDTAVYYCATNDDYWGQGTLVTVSS
VL: EIVLTQSPATLSLSPGERATLSCRASQSVSSYLAWYQQKPGQAPRLLIYDASNRATGIPARFSGSGSGTDFTLTISSLEPEDFAVYYCQQSSNWPRTFGQGTKVEIK
Kd [1]: 0.131 nM
EC50 [2]: 0.0802 µg/mL

B2: M944 scFv antibody (scFv)
scFv: DIVLTQSPASLAVSLGQRATISCRASESVDSYGNSFMHWYQQKPGQPPKLLIYAASNQGSGVPARFSGSGSGTDFSLNIHPMEEDDTAMYFCQQSKEVPWTFGGGTKLEIKSSGGGGSGGGGGGSSRSSEVQLVESGGGLVKPGGSLKLSCAASGFTFSSYGMSWVRQTPEKRLEWVATISGGGRDTYYSDSVKGRFTVSRDNAKNNLFLQMSSLRSEDTALYYCSRQYGTVWFFNWGQGTLVTVSA
notes: Tested as a monoclonal phage clone (pComb3x phage display); Any phage fusion partner is not described; also called PD1-M944 scFv
binding result [3]: binds

B3: murine antibody PD1-M944 (antibody, mouse IgG1, V domains shown)
VH: EVQLVESGGGLVKPGGSLKLSCAASGFTFSSYGMSWVRQTPEKRLEWVATISGGGRDTYYSDSVKGRFTVSRDNAKNNLFLQMSSLRSEDTALYYCSRQYGTVWFFNWGQGTLVTVSA
VL: not shown
notes: Full antibody with mouse IgG1 heavy chain constant region and mouse kappa light chain constant region; Expressed in HEK-293 cells
binding result [4]: binds

B4: humanized antibody PD1-H944 (antibody, human IgG4 S228P, kappa)
heavy: not shown
light: EIVLTQSPATLSLSPGERATLSCRASESVDSYGNSFMHWYQQKPGQPPRLLIYAASNQGSGVPARFSGSGSGTDFTLTISSLEPEDFAMYFCQQSKEVPWTFGQGTKVEIKRTVAAPSVFIFPPSDEQLKSGTASVVCLLNNFYPREAKVQWKVDNALQSGNSQESVTEQDSKDSTYSLSSTLTLSKADYEKHKVYACEVTHQGLSSPVTKSFNRGEC
binding result [5]: no binding (tested: 80 µg/mL)
Kd [1]: 0.108 nM
binding result [6]: no binding (tested: 13.30 nM)
binding relative to Nivolumab at 270 µg/mL [7]: ~1.62 times
EC50 [8]: 0.0327 µg/mL
